Reference: PMC6061939 (Biochemical and biophysical research communications, 2017)

Legend:
Assay in all cases: SEC
[1] = biological target: Dictyostelium discoideum Mdm12 (residues S2-N202) (Dictyostelium discoideum)
[2] = biological target: Saccharomyces cerevisiae Mmm1Δ (SMP domain) (Saccharomyces cerevisiae) (UniProt P41800)
[3] = biological target: T1, Saccharomyces cerevisiae Mmm1Δ (SMP domain) (Saccharomyces cerevisiae, UniProt P41800 194-409)
T1 sequence (looked up): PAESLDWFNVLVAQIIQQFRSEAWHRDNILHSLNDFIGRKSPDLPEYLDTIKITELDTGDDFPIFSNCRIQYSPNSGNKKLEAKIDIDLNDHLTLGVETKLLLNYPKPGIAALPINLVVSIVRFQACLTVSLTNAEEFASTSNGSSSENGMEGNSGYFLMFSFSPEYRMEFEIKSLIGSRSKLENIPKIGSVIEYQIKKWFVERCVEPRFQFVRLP

## Dictyostelium discoideum Mdm12 (residues S2-N202) (natural protein)
[1]
  stoichiometry N: 2

## Saccharomyces castellii Mdm12 (residues S2-E244) (natural protein)
[2]
  stoichiometry N: 1

B1: Saccharomyces cerevisiae Mdm12 (natural protein)
chain: MSFDINWSTLESDNRLNDLIRKHLNSYLQNTQLPSYVSNLRVLDFDLGKVGPAITLKEITDPLDEFYDSIREEADQETEENNDNKEDSEHICPDRTIANHEGPKDDFEAPVVMPSPNDIQFLLEVEYKGDLLVTIGADLVLNYPVEKFMTLPVKLSISDIGLHSLCIVACLSKQLFLSFLCDVSDPALDDNQTVLDPKGPILAATKPLERISIVRSMKIETEIGEQYQGQGSVLRSVGELEQFLFTIFKDFLRKELAWPSWINLDFNDGDE
[3]
  stoichiometry N: 1
